Reference: patent publication US20090209006 (published 2009)

B1: TACI (d1-29, d111-154)-Fc5 (protein)
chain: MDAMKRGLCCVLLLCGAVFVSLSQEIHAELRRFRRAMRSCPEEQYWDPLLGTCMSCKTICNHQSQRTCAAFCRSLSCRKEQGKFYDHLLRDCISCASICGQHPKQCAYFCENKLRSEPKSSDKTHTCPPCPAPEAEGAPSVFLFPPKPKDTLMISRTPEVTCVVVDVSHEDPEVKFNWYVDGVEVHNAKTKPREEQYNSTYRVVSVLTVLHQDWLNGKEYKCKVSNKALPSSIEKTISKAKGQPREPQVYTLPPSRDELTKNQVSLTCLVKGFYPSDIAVEWESNGQPENNYKTTPPVLDSDGSFFLYSKLTVDKSRWQQGNVFSCSVMHEALHNHYTQKSLSLSPGK
B2: TACI (d1-29, d120-154)-Fc5 (protein)
chain: MDAMKRGLCCVLLLCGAVFVSLSQEIHAELRRFRRAMRSCPEEQYWDPLLGTCMSCKTICNHQSQRTCAAFCRSLSCRKEQGKFYDHLLRDCISCASICGQHPKQCAYFCENKLRSPVNLPPELREPKSSDKTHTCPPCPAPEAEGAPSVFLFPPKPKDTLMISRTPEVTCVVVDVSHEDPEVKFNWYVDGVEVHNAKTKPREEQYNSTYRVVSVLTVLHQDWLNGKEYKCKVSNKALPSSIEKTISKAKGQPREPQVYTLPPSRDELTKNQVSLTCLVKGFYPSDIAVEWESNGQPENNYKTTPPVLDSDGSFFLYSKLTVDKSRWQQGNVFSCSVMHEALHNHYTQKSLSLSPGK
B3: TACI (d1-29, d107-154)-Fc5 (protein)
chain: MDAMKRGLCCVLLLCGAVFVSLSQEIHAELRRFRRAMRSCPEEQYWDPLLGTCMSCKTICNHQSQRTCAAFCRSLSCRKEQGKFYDHLLRDCISCASICGQHPKQCAYFCENEPKSSDKTHTCPPCPAPEAEGAPSVFLFPPKPKDTLMISRTPEVTCVVVDVSHEDPEVKFNWYVDGVEVHNAKTKPREEQYNSTYRVVSVLTVLHQDWLNGKEYKCKVSNKALPSSIEKTISKAKGQPREPQVYTLPPSRDELTKNQVSLTCLVKGFYPSDIAVEWESNGQPENNYKTTPPVLDSDGSFFLYSKLTVDKSRWQQGNVFSCSVMHEALHNHYTQKSLSLSPGK
B4: TACI (d1-29)-Fc5 (protein)
chain: MDAMKRGLCCVLLLCGAVFVSLSQEIHAELRRFRRAMRSCPEEQYWDPLLGTCMSCKTICNHQSQRTCAAFCRSLSCRKEQGKFYDHLLRDCISCASICGQHPKQCAYFCENKLRSPVNLPPELRRQRSGEVENNSDNSGRYQGLEHRGSEASPALPGLKEPKSSDKTHTCPPCPAPEAEGAPSVFLFPPKPKDTLMISRTPEVTCVVVDVSHEDPEVKFNWYVDGVEVHNAKTKPREEQYNSTYRVVSVLTVLHQDWLNGKEYKCKVSNKALPSSIEKTISKAKGQPREPQVYTLPPSRDELTKNQVSLTCLVKGFYPSDIAVEWESNGQPENNYKTTPPVLDSDGSFFLYSKLTVDKSRWQQGNVFSCSVMHEALHNHYTQKSLSLSPGK

The binders below were run against ZTNF4 (BLyS/BAFF) (human) (assay: other, solution radioligand binding with precipitation).

Binder | Kd [nM]
B1 | 0.115
B2 | 0.092
B3 | 0.121
B4 | 0.134

What follows are binders tested against ZTNF4 (BLyS/BAFF) (human) (assay: competition, 125I-ZTNF4 binding to TACI-coated plates).

Binder | IC50 [nM]
B1 | 2.31
B2 | 2.21
B3 | 4.95
B4 | 2.07
